This passage reports Kd results from article PMC2749330 (The Biochemical journal, 2008).

This assay has as its target recombinant CLEC-2, monomeric, as used in the surface plasmon resonance studies (UniProt Q9P126 55-229). Description: SPR. On the technique in general: SPR reads the build-up and loss of mass on a sensor chip optically.

In general, Kd refers to the constant that tells how readily two partners part at equilibrium.

Chain of recombinant CLEC-2, monomeric, as used in the surface plasmon resonance studies (Q9P126 55-229): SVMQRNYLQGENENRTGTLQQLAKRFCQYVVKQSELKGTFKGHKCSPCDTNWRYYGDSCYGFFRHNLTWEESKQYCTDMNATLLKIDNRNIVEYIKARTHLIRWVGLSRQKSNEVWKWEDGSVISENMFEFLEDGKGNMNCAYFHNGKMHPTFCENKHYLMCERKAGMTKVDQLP

B1: recombinant podoplanin fused at its C-terminus to the human IgG1 Fc region (Fc fusion, UniProt Q86YL7 23-131, looked up)
chain: ASTGQPEDDTETTGLEGGVAMPGAEDDVVTPGTSEDRYKSGLTTLVATSVNSVTGIRIEDLPTSESTVHAQEQSPSATASNVATSHSTEKVDGDTQTTVEKDGLSTVTL
With B1, the Kd amounted to 24.5 ± 3.7 µM.
